The source of these data is FireProtDB (doi:10.1016/j.jmb.2005.05.003).

For this data set the following is noted: Equus caballus, Thermal, CD, Potassium citrate 10 mM, KCl 0.1 mM, reversible: yes, whole UniProt chain shown.

B1: Beta-lactoglobulin-1 wild type, P02758 (protein)
chain: MKCLLLALGLALMCGIQATNIPQTMQDLDLQEVAGKWHSVAMAASDISLLDSESAPLRVYIEKLRPTPEDNLEIILREGENKGCAEKKIFAEKTESPAEFKINYLDEDTVFALDTDYKNYLFLCMKNAATPGQSLVCQYLARTQMVDEEIMEKFRRALQPLPGRVQIVPDLTRMAERCRI
For B1, the Tm by setting is: (pH 3.65) 47.5 °C; (pH 3.71) 49.4 °C; (pH 4) 58.3 °C; (pH 4.2) 59.7 °C; (pH 4.22) 61.4 °C; (pH 4.23) 57.3 °C. In addition, the “unfolding enthalpy (van 't Hoff)” value (pH 3.65) is 158 kJ/mol; the “unfolding enthalpy (van 't Hoff)” value (pH 3.71) stood at 185 kJ/mol; the “unfolding enthalpy (van 't Hoff)” value (pH 4) was 215 kJ/mol; the “unfolding enthalpy (van 't Hoff)” value (pH 4.2) is 239 kJ/mol; the “unfolding enthalpy (van 't Hoff)” value (pH 4.22) came to 242 kJ/mol; the “unfolding enthalpy (van 't Hoff)” value (pH 4.23) was found to be 220 kJ/mol.
